Laboratory results reported in patent publication US20210155711A1.

Legend:
[1] = target: human FcγRI (recombinant, polyhistidine-tagged) (human) (UniProt P12314); experiment: SPR (BIACORE 3000), His-tagged receptor captured on anti-His IgG, antibody injected; 1:1 steady state fit
[2] = target: recombinant human FcRn (transmembrane and cytoplasmic domains replaced with a poly-histidine tag) (human) (UniProt P55899); experiment: … bead competition: unlabelled test antibody against biotinylated human IgG1 CNT06234 for recombinant FcRn, pH 6.4
[3] = target: human FcγRIIIa (recombinant, Example 1) (human) (UniProt P08637); experiment: SPR (BIACORE 3000), His-tagged receptor captured on anti-His IgG, antibody injected; 1:1 steady state fit
[4] = target: human FcγRIIa (recombinant, Example 1; allotype not stated) (human) (UniProt P12318); experiment: as above
[5] = target: human FcγRIIa (recombinant, Example 1; allotype not stated) (human) (UniProt P12318); experiment: … bead competition: unlabelled test antibody against a biotinylated control antibody (human IgG1 CNT06234 by paragraph 15/paragraph 85; paragraph 86 says 'against IgG2') for recombinant FcgRIIa
[6] = target: human FcγRI (recombinant, polyhistidine-tagged) (human) (UniProt P12314); experiment: SPR (BIACORE 3000), His-tagged receptor captured on anti-His IgG, antibody injected; 1:1 kinetic fit
[7] = target: human FcγRIIIa (recombinant, Example 1) (human) (UniProt P08637); experiment: as above
[8] = target: human FcγRIIa (recombinant, Example 1; allotype not stated) (human) (UniProt P12318); experiment: … direct binding (avidity) assay: biotinylated test antibody and recombinant His-tagged FcgRIIa on donor and acceptor beads

recombinant human FcRn (transmembrane and cytoplasmic domains replaced with a poly-histidine tag) (human), sequence (P55899 other isoform, or with tags, fused parts or gaps, form in doubt): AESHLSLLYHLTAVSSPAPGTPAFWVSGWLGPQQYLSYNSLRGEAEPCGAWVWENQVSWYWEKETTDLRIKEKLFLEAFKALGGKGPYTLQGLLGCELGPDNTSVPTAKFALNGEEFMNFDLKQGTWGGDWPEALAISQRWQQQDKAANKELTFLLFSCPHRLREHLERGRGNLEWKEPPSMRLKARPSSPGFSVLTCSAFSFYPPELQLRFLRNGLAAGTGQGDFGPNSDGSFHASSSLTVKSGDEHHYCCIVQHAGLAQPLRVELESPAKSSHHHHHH
human FcγRIIIa (recombinant, Example 1) (human), sequence (P08637 17-208 F176V limits assumed): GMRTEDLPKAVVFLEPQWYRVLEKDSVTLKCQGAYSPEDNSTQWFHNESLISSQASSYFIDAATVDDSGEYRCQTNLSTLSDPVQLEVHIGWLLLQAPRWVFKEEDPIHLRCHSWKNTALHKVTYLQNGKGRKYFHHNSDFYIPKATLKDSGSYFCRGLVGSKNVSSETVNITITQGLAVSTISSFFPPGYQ
human FcγRIIa (recombinant, Example 1; allotype not stated) (human), sequence (P12318 36-218 limits assumed): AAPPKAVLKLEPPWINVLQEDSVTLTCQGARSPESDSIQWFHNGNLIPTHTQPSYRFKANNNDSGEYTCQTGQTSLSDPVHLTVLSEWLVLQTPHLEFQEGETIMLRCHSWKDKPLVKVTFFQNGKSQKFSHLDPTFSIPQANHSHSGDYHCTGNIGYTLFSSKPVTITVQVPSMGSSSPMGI
human FcγRI (recombinant, polyhistidine-tagged) (human), sequence (P12314 16-288 limits assumed): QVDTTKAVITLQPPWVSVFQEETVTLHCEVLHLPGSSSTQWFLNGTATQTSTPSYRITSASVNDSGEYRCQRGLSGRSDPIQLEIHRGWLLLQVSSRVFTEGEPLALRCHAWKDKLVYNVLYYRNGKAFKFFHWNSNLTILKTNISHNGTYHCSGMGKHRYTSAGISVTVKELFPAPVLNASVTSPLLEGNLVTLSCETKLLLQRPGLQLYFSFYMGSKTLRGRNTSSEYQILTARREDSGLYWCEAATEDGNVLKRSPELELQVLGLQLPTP

Kd [1] [µM] | IC50 (read off the curve) [2] [µg/mL] | Kd [3] [µM] | Kd [4] [µM] | IC50 (read off the curve) [5] [µg/mL] | Kd [6] [µM] | Kd [7] [µM] | EC50 (read off the curve) [8] [µg/mL] | Substance
3.7 | 100 | – | – | – | – | – | – | IgG1 Ag (human IgG1 N297A, aglycosylated, anti-Her2/neu construct) (antibody)
160 | 60 | 85 | 2.2 | 20 | – | – | – | IgG2c4a (human IgG2 H268A, V309L, A330S, P331S, anti-Her2/neu construct) (antibody)
38 | 60 | – | 170 | 100 | – | – | – | IgG2c4b (human IgG2 V234A, G237A, H268Q, V309L, A330S, P331S, anti-Her2/neu construct) (antibody)
– | – | – | 19 | 60 | 0.044 | 0.64 | – | IgG2c4c (human IgG2 V234A, G237A, H268A, V309L, A330S, P331S, anti-Her2/neu construct) (antibody)
– | 100 | – | – | – | – | – | – | IgG2c4e (human IgG2 P233S, V234A, G237A, P238S, H268A, V309L, A330S, P331S, anti-Her2/neu construct) (antibody)
210 | 80 | 95 | 2.7 | 30 | – | – | 0.2 | IgG2m4 (human IgG2 H268Q, V309L, A330S, P331S, anti-Her2/neu construct) (antibody)
15 | 100 | 55 | 150 | – | – | – | – | IgG4 A/A (human IgG4 S228P, F234A, L235A, anti-Her2/neu construct) (antibody)
– | 70 | – | 1.7 | 6 | 0.013 | – | 0.1 | huIgG1 (wild type human IgG1 isotype antibody, anti-Her2/neu construct)
120 | 80 | 41 | 1 | 50 | – | – | 0.2 | huIgG2 (wild type human IgG2 isotype antibody, anti-Her2/neu construct)
